A short description of the data set: soluble on expression in E. coli; label from the status in PepcDB or PDB records.
Regarding “SLVARSVVVSAEAVYSHEGEYVGDHVLVDEGLVKSISRGEPHVSVGKRVAVKGFLLPPLVDAHLHMRSLGASFRIVNLKGASSPEEVAKRLAAANSPIAVGRGWNEEEFRPGSRLDRRILDSYLGEKPALAVRICGHVAVANSAFIRESGVDKLFPNLVDRERGLLLEDAVSYAVSVAMKTYNNEELLRDAASALASVGVFGVSSMACSEEEVRALSLIGDALEVRVACYLRRGVEPPPKRAGARWSIVGVKLFADGSLGGRTAYLRRPYISGENEGWRGLKLLSSRDIAEEAVSNSHRGLATAVHAIGDAALDEVLEGFSNAISRGVEPGMLRVEHASLAWPNQIDRLASLRVWTVVQPLFRVSDWWLESRVGSDMLQAAYPFASMLRAGVKLALSTDAPVETYDPAETFKAAVGLCSSRLCRESESLTPRETLKLYTLNSALASGGPVAWLGRLRRGAPALFAVANVDVLNSGRKELEKLKFRGLNLAK”, the “soluble on expression in E. coli” value is given as “not soluble”.

As to “DIQMTQSPASLSASVGETVTITCRASENIYSYLAWYQQKQGKSPQLLVYNAKTLAEGVPSRFSGSGSGTQFSLKINSLQPEDFGSYYCQHHYGTPFTFGSGTKLEIKRHHHHHH”, the “soluble on expression in E. coli” value was “soluble”.

Regarding “MDEVGVASEHLPDLRDRTGHAVNLAVWGDHGPVLVRWDYGAHALPITIRVGATMPLLTSAIGRVYLAHLPATMTTSIVETELETLGTNAPSKSDVARLRATVLEQGVATISGEVIPGVMSVAAPVFPAGQSIPLAVAVALPSSLGDTATVAEVTLELLRTTKAISEDYGSVGGAAGGPIA”, the “soluble on expression in E. coli” value is recorded as “not soluble”.

In the case of “ELEKSEELYKSLLEDASDAIVVVDENEIVKMVNKMAEEFFGHSSEEVVGLPLSRMLVLVKTHNIPIVYNFFQEVGKGRHVAEEIRFSRVEGEQVVGLIHANTVTIGSERLIQAIIRDVT”, the “soluble on expression in E. coli” value is recorded as “not soluble”.

“MGSDKIHHHHHHMNWLLNISTHGSDLEIAGPEWSEAVSLLRRTGMDGFELYPAGAYDCTAIPKEIVGGVHLRFFVMLRQIWQNDREGLLRMFGSEQTVRHYYSGVNREAVISCYRSQLELAARFNVPYVVFHPVHYELEYVFNWQPPWGWRETVDLSTEIINEVVRDTPYDGWILFENLWWPGNFRLDSTDEIDRLLSKVRWPKCGIVLDTAHILNKNQELRTEEEAIAFLLRQVERLGDYRQLIKAVHLSKSLSGEAAKAGFANADPFCGAHDFWQRFSIALRHVRDLDRHEPFSHSMLGELFDLIEPDNVVFELAFSSLDEWIGKIEQQQRALQRFFPECRIKENLY”: the “soluble on expression in E. coli” value was “not soluble”.

Regarding “MTETEQTTAPIYPLKRNWTWWYLNDERNKSWEDRLKKVYTFNTVSEFWALYDAIRPPSGLNALCDYNVFRDDIQPMWEVPENSNGGRWLIVIDKGKTPEMVDAIWLEILMALVGEQFGKDMESICGLVCNVRGKGSKISVWTKDCNDDETNMRIGVVLKEKLMAASKDHSKPLFDVIRYEDHESCQKKTSSVVKAKLSLHSSDAPVAEKSAV”, the “soluble on expression in E. coli” value is given as “not soluble”.

In the case of “MIWRLIMLIDRFGRPVTNLRISLTKECNLSCFYCHREGQLDGERFMTPEEIERIVRVASRLGIKKVKLTGGEPTIRKDILEIIRRLKPYVVDLSLTTNGTTMYVLAEKLKEAGLDRVNISLDTLDRKKYKMITGFNVLDEVIKGIKKATKLFYPVKLNMVVMKGVNDDEIWDMMRFAGEVNAILQLIELEVPREMENSQFFKDFFYPLKPLEEKFEKLAVKVKERRMHRRRKYFIPIDGKIVEVEVVRSMHNTVFCMNCTRLRLTADGYLKTCLLRRDDLIDILGPLRNGASDADLIEIFKRAVLLRRPYWTSNSSLEHHHHHH”, the “soluble on expression in E. coli” value is “soluble”.

With “MGSDKIHHHHHHMIACENSGHSIPDDFPEVRKIVEAGVTTNPKKDYELSRYACYLIVQNGDPRKEVIALGQTYFAIQTYRQEVADHFNELDEDNRRLVVRGDIKQWNQMLAETAHNAGVITNEEFAIFQNAGYMGLYGGLDVEGILAAVYQSVFGGDVYLSLEEKVANLLFNEIGNSQVV”, the “soluble on expression in E. coli” value is given as “not soluble”.

For the sequence “MRDTMEILRTENIVKYFGEFKALDGVSISVNKGDVTLIIGPNGSGKSTLINVITGFLKADEGRVYFENKDITNKEPAELYHYGIVRTFQTPQPLKEMTVLENLLIGEINPGESPLNSLFYKKWIPKEEEMVEKAFKILEFLKLSHLYDRKAGELSGGQMKLVEIGRALMTNPKMIVMDQPIAGVAPGLAHDIFNHVLELKAKGITFLIIEHRLDIVLNYIDHLYVMFNGQIIAEGRGEEEIKNVLSDPKVVEIYIGE”, the “soluble on expression in E. coli” value was “soluble”.

As for “MHVTRNVGKSQKLHHVSLKQVLSYLEPHEQEDTKPVTSTKNKGFLLFNSHQNTLNTHMHGAMNSPCIDFVMFSRGQHDEDNMSRRPPWKRERSMSTQHHHLNLSPNEDEELANCLVLLSNSGDAHGGDQHKQHGHGKGKTVKKQKTAQVFQCKACKKVFTSHQALGGHRASHKKVKGCFASQDKEEEEEEEYKEDDDDNDEDEDEEEDEEDKSTAHIARKRSNAHECTICHRVFSSGQALGGHKRCHWLTPSNYLRMTSLHDHHHSVGRPQPLDQPSLDLNLACQEYSVDPTAMSVGMIERDGGGNNHNATSSSWLKLASGDWS”, the “soluble on expression in E. coli” value is recorded as “not soluble”.

Turning to “MGSDKIHHHHHHMATDASGGVGEKAKDHVHVPYEVVSYYAARVALLECMSVGATPFTFLVQNFSGDEPYQKMIDGINRALGEANQAQATIAGSTESNMVLEQSCLGVTVIGRVHQSALKIGITPKDAGIALLGKPLVGEEVVSQEKDVFPLKQFDELLQEEGVYEIIPVGSKGVKYELEVLAATNEWNTLQVPVNGNVDLTKSSGPATSLLITFDGTMEALLKAKYSSWWTTLASKIST”, the “soluble on expression in E. coli” value is given as “not soluble”.

For the sequence “MQITTTFRHMEQSEALKSYAAEKLERVKKYIDEPITAQVFLTVEKIRHIAEVTLTAKGITIKAAEETNDMYAALDAVIDKIERQLRRYKERLKEHKPSADDRALEIQKSVVTAESIEQRTEPVVIRSKTISIKPMSVEEAVMQMDLLHKDFLVFTDASTEAINVVYRRKDGNYGLIEPQRKLEHHHHHH”, the “soluble on expression in E. coli” value is recorded as “soluble”.

Regarding “MSNVYVMALDFGNGFVKGKINDEKFVIPSRIGRKTNENNQLKGFVDNKLDVSEFIINGNNDEVLLFGNDLDKTTNTGKDTASTNDRYDIKSFKDLVECSIGLLAREVPEEVVNVVIATGMPSNEIGTDKQAKFEKLLNKSRLIEIDGIAKTINVKGVKIVAQPMGTLLDLNMENGKVFKAFTEGKYSVLDFGSGTTIIDTYQNMKRVEEESFVINKGTIDFYKRIASHVSKKSEGASITPRMIEKGLEYKQCKLNQKTVIDFKDEFYKEQDSLIEEVMSNFEITVGNINSIDRIIVTGGGANIHFDSLSHYYSDVFEKADDSQFSNVRGYEKLGELLKNKVEQESKRGSHHHHHH”, the “soluble on expression in E. coli” value was “soluble”.

Consider “MASLEVSRSPRRSRRELEVRSPRQNKYSVLLPTYNERENLPLIVWLLVKSFSESGINYEIIIIDDGSPDGTRDVAEQLEKIYGSDRILLRPREKKLGLGTAYIHGMKHATGNYIIIMDADLSHHPKFIPEFIRKQKEGNFDIVSGTRYKGNGGVYGWDLKRKIISRGANFLTQILLRPGASDLTGSFRLYRKEVLEKLIEKCVSKGYVFQMEMIVRARQLNYTIGEVPISFVDRVYGESKLGGNEIVSFLKGLLTLFATT”, for which the “soluble on expression in E. coli” value is reported as “not soluble”.

Regarding “MKRFDLRPLKAGIFERLEELIEKEMQPNEVAIFMFEVGDFSNIPKSAEFIQSKGHELLNSLRFNQADWTIVVRKKA”, the “soluble on expression in E. coli” value is “not soluble”.

Take “MSLAKRIVPCLDVHAGRVVKGVNFVNLRDAGDPVEAARAYDEAGADELVFLDISATHEERAILLDVVARVAERVFIPLTVGGGVRSLEDARKLLLSGADKVSVNSAAVRRPELIRELADHFGAQAVVLAIDARWRGDFPEVHVAGGRVPTGLHAVEWAVKGVELGAGEILLTSMDRDGTKEGYDLRLTRMVAEAVGVPVIASGGAGRMEHFLEAFQAGAEAALAASVFHFGEIPIPKLKRYLAEKGVHVRLD”: the “soluble on expression in E. coli” value is “soluble”.

Consider “MGSDKIHHHHHHMEIIKKKFPKIKRDYLDTLQINIGYKCNQACSHCHVDSSPSRTEMMSDDIIKLIPKVIKANEIKLLDITGGAPELHPKFKQLVIEVRSLNVEVMDRCNLTILKEPGYESLAGFLASNKVQITASLPCYLEGNVDKQRGKGVFEKSILALKQLNNLGYGIKDKGLLLNLVYNPSTPQLPPSQKELEDIYRRELKERYGIFFSNLYVLANMPINRYENYLKTIGKLEEYNKLLKDNHNPGNINSVMCRSTLSVDWKGFLYDCDFNQQLGMKRNGNVKHLNDLLIPLVSLKNNPISTGNHCFGCTAGAGSSCGGELT”, for which the “soluble on expression in E. coli” value is “not soluble”.

Source of the values: the DeepSol protein solubility set.
